# Assay results from patent publication US10385103B2, “Cell-permeable (ICP)-SOCS3 recombinant protein and uses thereof” (CELLIVERY THERAPEUTICS, INC., priority 2014, dated 2019).
# B1: HM165S3B: His-tagged recombinant protein of aMTD165, human SOCS3 and solubilization domain B; prototype improved cell-permeable SOCS3 (protein)
# chain: MGSSHHHHHHSSGLVPRGSHMALAVPVALAIVPVTHSKFPAAGMETSRPLDTSLRLKTFSSKSEYQLVVNAVRKLQESGFYWSAVTGGEANLLLSAEPAGTFLIRDSSDQRHFFTLSVKTQSGTKNLRIQCEGGSFSLQSDPRSTQPVPRFDCVLKLVHHYMETPPPGAPSFPSPPTEPSSEVPEQPSAQPLPGSPPRRAYYIYSGGEKIPLVLSRPLSSNVATLQHLCRKTVNGHLDSYEKVTQLPGPIREFLDQYDAPLGSMAEQSDKDVKYYTLEEIQKHKDSKSTWVILHHKVYDLTKFLEEHPGGEEVLGEQAGGDATENFEDVGHSTDARELSKTYIIGELHPDDRSKIAKPSETL
# modifications: Amino acid sequence of HM165S3B
# Tests used:
# STAT3 = experiment: Cell-to-cell function: phospho-STAT3 in PANC-1 cells seeded with protein-treated RAW 264.7 cells (western blot); type: cell-based; settings: RAW 264.7 treated with 5 μM protein 2 hour, seeded on PANC-1, 20 ng/ml IFN-γ 15 minutes
# Description: For this, RAW 264.7 cells were treated with 5 μM of FITC-labeled HM165S3B, HTS3B for 2 hour and washed with PBS two times. Thereafter, they were seeded on PANC-1 cell, incubated for 2 hours and treated with 20 ng/ml of IFN-γ for 15 minutes, followed by Western blotting in the same manner as in Example 8-1. And Cell-to-cell protein transfer was assessed by flow cytometry.
# [1] = Bioavailability of FITC-labeled SOCS3 recombinant proteins after IV injection (PBMCs, splenocytes, hepatocytes, tissue sections); type: in vivo, ICR mice
# Description: To investigate BA of the iCP-SOCS3 (HM165S3B) recombinant proteins, ICR mice (Doo-Yeol Biotech Co. Ltd., Seoul, Korea) were intravenous (IV) injected with 600 μg/head of 10 μM FITC (Fluorescein isothiocyanate, SIGMA, USA)-labeled SOCS3 recombinant proteins (HS3B, HM165S3B) and after 15 min, 30 min, 1H, 2H, 4H, 8H, 12H, 16H, 24H, 36H, 48H, mice of each group were sacrificed. From the mice, peripheral blood mononuclear cells (PBMCs), splenocytes, and hepatocytes were separated.
# Further, the spleen was removed and washed with PBS, and then placed on a dry ice and embedded in an O.C.T. compound (Sakura). After cryosectioning at 20 μm, tissue distributions of fluorescence-labeled-SOCS3 proteins in different organs was analyzed by fluorescence microscopy (Carl Zeiss, Gottingen, Germany).
# After anesthesia with ether, ophthalmectomy was performed and the blood was collected therefrom using a 1 ml syringe. The collected blood was immediately put in an EDTA tube and mixed well. The blood was centrifuged at 4,000 rpm and 4° C. for 5 minutes, and plasma was discarded and only buffy coat was collected in a new microtube. 0.5 ml of RBC lysis buffer (Sigma) was added thereto, followed by vortexing. The microtube was left at room temperature for 5 minutes, and then centrifuged at 4,000 rpm and 4° C. for 5 minutes. 0.3 ml of PBS was added to a pellet, followed by pipetting and flow cytometry (FlowJo cytometric analysis software, Guava, Millipore, Darmstadt, Germany).
# Mice were laparotomized and the spleen or liver were removed. The spleen or liver thus removed was separated into single cells using a Cell Strainer (SPL, Korea). These cells were collected in a microtube, followed by centrifugation at 4,000 rpm and 4° C. for 5 minutes. 0.5 ml of RBC lysis buffer was added thereto, followed by vortexing. The microtube was left at room temperature for 5 minutes, and then centrifuged at 4,000 rpm and 4° C. for 5 minutes. 0.5 ml of PBS was added to a pellet, followed by pipetting and flow cytometry (FlowJo cytometric analysis software, Guava, Millipore, Darmstadt, Germany).
# [2] = IV 600 μg/head FITC-labeled protein
molecule,measurement,setting,value
B1,phospho-STAT3 (cell-to-cell function),STAT3,reduced
same,"time maintained in tissues, depending on the tissues",[1]; IV,8 to 16 h
same,time of delivery from blood to various tissues,[1]; IV,≤ 2 h
same,distribution in pancreas tissue maintained up to,[1]; [2],up to 8 hours
same,permeability in hepatocytes maintained up to,[1]; [2],up to 16 hours
same,permeability in splenocytes maintained up to,[1]; [2],up to 16 hours
same,time of maximum permeability in PBMCs,[1]; [2],30 min
same,time of maximum permeability in hepatocytes,[1]; [2],15 min
same,time of maximum permeability in splenocytes,[1]; [2],2 h
same,time of very high distribution in pancreas tissue,[1]; [2],2 h
